Assay results: patent US11795460B2, “Compositions and methods for TTR gene editing and treating ATTR amyloidosis” (Intellia Therapeutics, Inc., priority 2017, dated 2023)
Strand notation (5' to 3'): a small letter for the sugar, then the base; units joined by * are phosphorothioate-linked, units joined directly phosphodiester-linked; [ ] holds rarer units or linkages, { } end groups; capitals alone tell only the bases. m = 2'-O-methyl; r = 2'-OH (RNA)

B1: G000567: TTR sgRNA modified sequence, Human, SEQ ID No. 109; guide sequence of CR003352 (nucleic acid)
guide: mG*mA*mA*rArGrGrCrUrGrCrUrGrArUrGrArCrArCrCrGrUrUrUrUrArGrAmGmCmUmAmGmAmAmAmUmAmGmCrArArGrUrUrArArArArUrArArGrGrCrUrArGrUrCrCrGrUrUrArUrCrAmAmCmUmUmGmAmAmAmAmAmGmUmGmGmCmAmCmCmGmAmGmUmCmGmGmUmGmCmU*mU*mU*mU
B2: G000571: TTR sgRNA modified sequence, Human, SEQ ID No. 112; guide sequence of CR005301 (nucleic acid)
guide: mG*mU*mC*rArCrArGrArArArCrArCrUrCrArCrCrGrUrGrUrUrUrUrArGrAmGmCmUmAmGmAmAmAmUmAmGmCrArArGrUrUrArArArArUrArArGrGrCrUrArGrUrCrCrGrUrUrArUrCrAmAmCmUmUmGmAmAmAmAmAmGmUmGmGmCmAmCmCmGmAmGmUmCmGmGmUmGmCmU*mU*mU*mU
B3: G000568: TTR sgRNA modified sequence, Human, SEQ ID No. 110; guide sequence of CR003391 (nucleic acid)
guide: mG*mG*mC*rUrGrUrCrGrUrCrArCrCrArArUrCrCrCrArGrUrUrUrUrArGrAmGmCmUmAmGmAmAmAmUmAmGmCrArArGrUrUrArArArArUrArArGrGrCrUrArGrUrCrCrGrUrUrArUrCrAmAmCmUmUmGmAmAmAmAmAmGmUmGmGmCmAmCmCmGmAmGmUmCmGmGmUmGmCmU*mU*mU*mU
B4: G000484: TTR sgRNA modified sequence, Human, SEQ ID No. 91; guide sequence of CR003367 (nucleic acid)
guide: mA*mG*mA*rCrArCrCrArArArUrCrUrUrArCrUrGrGrArGrUrUrUrUrArGrAmGmCmUmAmGmAmAmAmUmAmGmCrArArGrUrUrArArArArUrArArGrGrCrUrArGrUrCrCrGrUrUrArUrCrAmAmCmUmUmGmAmAmAmAmAmGmUmGmGmCmAmCmCmGmAmGmUmCmGmGmUmGmCmU*mU*mU*mU
B5: G000572: TTR sgRNA modified sequence, Human, SEQ ID No. 113; guide sequence of CR003385 (nucleic acid)
guide: mC*mC*mC*rCrUrArCrUrCrCrUrArUrUrCrCrArCrCrArGrUrUrUrUrArGrAmGmCmUmAmGmAmAmAmUmAmGmCrArArGrUrUrArArArArUrArArGrGrCrUrArGrUrCrCrGrUrUrArUrCrAmAmCmUmUmGmAmAmAmAmAmGmUmGmGmCmAmCmCmGmAmGmUmCmGmGmUmGmCmU*mU*mU*mU
B6: G000500: TTR sgRNA modified sequence, Human, SEQ ID No. 107; guide sequence of CR003337 (nucleic acid)
guide: mC*mC*mA*rGrUrCrCrArGrCrArArGrGrCrArGrArGrGrGrUrUrUrUrArGrAmGmCmUmAmGmAmAmAmUmAmGmCrArArGrUrUrArArArArUrArArGrGrCrUrArGrUrCrCrGrUrUrArUrCrAmAmCmUmUmGmAmAmAmAmAmGmUmGmGmCmAmCmCmGmAmGmUmCmGmGmUmGmCmU*mU*mU*mU
B7: G000493: TTR sgRNA modified sequence, Human, SEQ ID No. 100; guide sequence of CR003368 (nucleic acid)
guide: mA*mA*mG*rUrGrCrCrUrUrCrCrArGrUrArArGrArUrUrGrUrUrUrUrArGrAmGmCmUmAmGmAmAmAmUmAmGmCrArArGrUrUrArArArArUrArArGrGrCrUrArGrUrCrCrGrUrUrArUrCrAmAmCmUmUmGmAmAmAmAmAmGmUmGmGmCmAmCmCmGmAmGmUmCmGmGmUmGmCmU*mU*mU*mU
B8: G000490: TTR sgRNA modified sequence, Human, SEQ ID No. 97; guide sequence of CR003366 (nucleic acid)
guide: mA*mA*mA*rUrArGrArCrArCrCrArArArUrCrUrUrArCrGrUrUrUrUrArGrAmGmCmUmAmGmAmAmAmUmAmGmCrArArGrUrUrArArArArUrArArGrGrCrUrArGrUrCrCrGrUrUrArUrCrAmAmCmUmUmGmAmAmAmAmAmGmUmGmGmCmAmCmCmGmAmGmUmCmGmGmUmGmCmU*mU*mU*mU
B9: G000570: TTR sgRNA modified sequence, Human, SEQ ID No. 111; guide sequence of CR003347 (nucleic acid)
guide: mC*mA*mU*rUrGrArUrGrGrCrArGrGrArCrUrGrCrCrUrGrUrUrUrUrArGrAmGmCmUmAmGmAmAmAmUmAmGmCrArArGrUrUrArArArArUrArArGrGrCrUrArGrUrCrCrGrUrUrArUrCrAmAmCmUmUmGmAmAmAmAmAmGmUmGmGmCmAmCmCmGmAmGmUmCmGmGmUmGmCmU*mU*mU*mU
B10: G000494: TTR sgRNA modified sequence, Human, SEQ ID No. 101; guide sequence of CR003360 (nucleic acid)
guide: mG*mU*mG*rArGrUrCrUrGrGrArGrArGrCrUrGrCrArUrGrUrUrUrUrArGrAmGmCmUmAmGmAmAmAmUmAmGmCrArArGrUrUrArArArArUrArArGrGrCrUrArGrUrCrCrGrUrUrArUrCrAmAmCmUmUmGmAmAmAmAmAmGmUmGmGmCmAmCmCmGmAmGmUmCmGmGmUmGmCmU*mU*mU*mU
B11: G000483: TTR sgRNA modified sequence, Human, SEQ ID No. 90; guide sequence of CR005298 (nucleic acid)
guide: mU*mC*mC*rArCrUrCrArUrUrCrUrUrGrGrCrArGrGrArGrUrUrUrUrArGrAmGmCmUmAmGmAmAmAmUmAmGmCrArArGrUrUrArArArArUrArArGrGrCrUrArGrUrCrCrGrUrUrArUrCrAmAmCmUmUmGmAmAmAmAmAmGmUmGmGmCmAmCmCmGmAmGmUmCmGmGmUmGmCmU*mU*mU*mU

System: TTR mRNA
Test: TTR mRNA knockdown in primary human hepatocytes by quantitative PCR (Tables 34, 35)
Format: cell-based
Details: TTR mRNA in PHH; LNP dose 300 ng mRNA cargo; gRNA:mRNA 1:2; 96 hours after treatment; biological triplicates; vs untreated control
Method: In one experiment, PHH were cultured and treated with LNPs comprising Cas9 mRNA (SEQ ID NO:1) and a gRNA of interest (See FIG. 29, Table 34), as described in Example 4. The LNPs were prepared using the cross-flow procedure described above and purified and concentrated using PD-10 columns and Amicon centrifugal filter units, respectively. The LNPs were formulated with an N:P ratio of 6.0 and contained Lipid A, Cholesterol, DSPC, and PEG2k-DMG in a 50:38:9:2 molar ratio, respectively. The LNPs comprised a gRNA:mRNA ratio of 1:2, and the cells were treated at a dose of 300 ng (with respect to the amount of mRNA cargo delivered).
(§1) Ninety-six (96) hours following LNP treatment (with biological triplicates for each condition), mRNA was purified from PHH cells using the Dynabeads mRNA DIRECT Kit (ThermoFisher Scientific) according to the manufacturer's protocol. Reverse Transcription (RT) was performed with Maxima reverse transcriptase (ThermoFisher Scientific) and a poly-dT primer. The resulting cDNA was purified with Ampure XP Beads (Agencourt). For Quantitative PCR, 2% of the purified cDNA was amplified with Taqman Fast Advanced Mastermix and 3 Taqman probe sets, TTR (Assay ID: Hs00174914_m1), GAPDH (Assay ID: Hs02786624_g1), and PPIB (Assay ID: Hs00168719_m1). The assays were run on the QuantStudio 7 Flex Real Time PCR System according to the manufacturer's instructions (Life Technologies). Relative expression of TTR mRNA was calculated by normalizing to the endogenous controls (GAPDH and PPIB) individually, and then averaged.
In a separate experiment, TTR mRNA knockdown was evaluated following treatment with LNPs comprising G000480, G000486, and G000502. The LNPs were formulated and PHH were cultured and treated with the LNPs, each as described in the experiment above in this Example with the exception that the cells were treated at a dose of 100 ng (with respect to the amount of mRNA cargo delivered).
as §1, with “(single treatment” for “(with biological triplicates”, “the High Capacity cDNA Reverse Transcription Kit” for “Maxima reverse transcriptase”, “according to the manufacturer's instructions.” for “and a poly-dT primer. The resulting cDNA was purified with Ampure XP Beads (Agencourt).”, “the” for “the purified”

Molecule	Avg % Knockdown
B1	90.89%
B2	96.17%
B3	53.44%
B4	75.22%
B5	55.92%
B6	92.90%
B7	87.53%
B8	78.34%
B9	93.38%
B10	91.15%
B11	68.78%

System: TTR
Test: EC50 and maximum editing in primary human hepatocytes treated with LNP formulated U-depleted Spy Cas9 mRNA and sgRNAs (Tables 19, 21)
Format: cell-based
Set-up: key: % of sequence reads with indels or substitutions over total reads
Details: Table 19, LNP with U-depleted Spy Cas9 mRNA and human specific sgRNAs, dose response
Method: Primary liver hepatocytes. Primary human liver hepatocytes (PHH) and primary cynomolgus liver hepatocytes (PCH) (Gibco) were cultured per the manufacturer's protocol (Invitrogen, protocol 11.28.2012). In brief, the cells were thawed and resuspended in hepatocyte thawing medium with supplements (Gibco, Cat. CM7000) followed by centrifugation at 100 g for 10 minutes for human and 80 g for 4 minutes for cyno. The supernatant was discarded and the pelleted cells resuspended in hepatocyte plating medium plus supplement pack (Invitrogen, Cat. A1217601 and CM3000). Cells were counted and plated on Bio-coat collagen I coated 96-well plates (ThermoFisher, Cat. 877272) at a density of 33,000 cells/well for human or 60,000 cells/well for cyno (or 65,000 cells/well when assaying effects on TTR protein, described further below). Plated cells were allowed to settle and adhere for 6 or 24 hours in a tissue culture incubator at 37° C. and 5% CO2 atmosphere. After incubation cells were checked for monolayer formation and media was replaced with hepatocyte culture medium with serum-free supplement pack (Invitrogen, Cat. A1217601 and CM4000).
For LNPs prepared using the cross-flow technique, the LNPs were formed by impinging jet mixing of the lipid in ethanol with two volumes of RNA solutions and one volume of water. The lipid in ethanol is mixed through a mixing cross with the two volumes of RNA solution. A fourth stream of water is mixed with the outlet stream of the cross through an inline tee. (See WO2016010840 FIG. 2.) The LNPs were held for 1 hour at room temperature, and further diluted with water (approximately 1:1 v/v). Diluted LNPs were concentrated using tangential flow filtration on a flat sheet cartridge (Sartorius, 100 kD MWCO) and then buffer exchanged by diafiltration into 50 mM Tris, 45 mM NaCl, 5% (w/v) sucrose, pH 7.5 (TSS). Alternatively, the final buffer exchange into TSS was completed with PD-10 desalting columns (GE). If required, formulations were concentrated by centrifugation with Amicon 100 kDa centrifugal filters (Millipore). The resulting mixture was then filtered using a 0.2 μm sterile filter. The final LNP was stored at 4° C. or −80° C. until further use.
To quantitatively determine the efficiency of editing at the target location in the genome, sequencing was utilized to identify the presence of insertions and deletions introduced by gene editing.
Primers were designed around the target site within the gene of interest (e.g. TTR), and the genomic area of interest was amplified.
Additional PCR was performed per the manufacturer's protocols (Illumina) to add chemistry for sequencing. The amplicons were sequenced on an Illumina MiSeq instrument. The reads were aligned to a reference genome (e.g., the human reference genome (hg38), the cynomologus reference genome (mf5), the rat reference genome (rn6), or the mouse reference genome (mm10)) after eliminating those having low quality scores. The resulting files containing the reads were mapped to the reference genome (BAM files), where reads that overlapped the target region of interest were selected and the number of wild type reads versus the number of reads which contain an insertion, substitution, or deletion was calculated.
The editing percentage (e.g., the “editing efficiency” or “percent editing” or “indel frequency”) is defined as the total number of sequence reads with insertions/deletions (“indels”) or substitutions over the total number of sequence reads, including wild type.
Lipid nanoparticle formulations of modified sgRNAs targeting human TTR and the cyno matched sgRNA sequences were tested on primary human hepatocytes and primary cyno hepatocytes in a dose response curve. Primary human and cyno hepatocytes were plated as described in Example 1. Both cell lines were incubated at 37° C., 5% CO2 for 24 hours prior to treatment with LNPs. […]

Molecule	Max Editing
B2	71.28
B3	95.72
B4	94.14
B5	97.94
B6	88.70
B7	63.95
B8	94.16
B9	98.22
B10	75.70
B11	77.39
